Laboratory results published in patent US20140024050A1 (published 2014).
Bridges are numbered along the chain shown (N, C = ends). Where no end group is shown, it is not given here.

T1: Alexa-488 labeled PIVKAII Gla domain peptide (13-27), cyclized (disulfide 5-10 (inferred); also: Alexa Fluor 488 attached via TFP active ester, site not given here)
T1 construct: also called Alexa488-PIVKAII (13-27); Alexa488-PIVKAII peptide (13-27 cyc)
T1 peptide: LERECVEETCSYEEA

B1: anti-PIVKA-II monoclonal antibody 3C10 (hybridoma-derived) (antibody, V domains shown)
VH: EVQLVESGGDLVKPGGSLKLSCAASGFTFSSYGMSWVRQTPDKRLEWVATISRGGSSTYYPDSVKGRFTISRDNAKNNLYLQMSSLKSEDTAMYYCASLNYGNFFDYWGQGTTLTVSS
VL: DVVMTQTPLSLPVSLGDQASISCRSSQSLVHSNGNTYLHWYLQKPGQSPKLLIYKVSNRFSGVPDRFSGSGSGTDFTLKISRVEAEDLGVYFCSQNRHVPPTFGGGTKLEIKR
notes: Mouse monoclonal from a GANP transgenic C57BL/6 mouse immunized with PIVKA-II 13-27 peptide-KLH; For the Kd by quenching the antibody carried Black Hole Quencher (I.R. 2.3); also called mAb 3C10; clone 3C10

Legend:
[1] = target: B1; test: FCS displacement of Alexa488-PIVKAII (13-27) from mAb 3C10, positive control
Experimental: (§1) Then, various PIVKAII Gla domain (13-27) analogs were added to the sample. PIVKAII (13-27) was added as a positive control, and the original sample was used as a negative control. FCS measurements were performed on each sample after overnight incubation.

[2] = target: B1; test: FCS displacement: 2 nM Alexa488-PIVKAII (13-27) premixed with 10 nM mAb 3C10, analog added, overnight
Experimental: as §1

[3] = target: T2, PIVKA-II antigen (heat-decarboxylated prothrombin) (UniProt P00734 44-622, Gla residues of the Gla domain decarboxylated to glutamic acid by heating dried prothrombin powder at 110 C for 8 hours); test: FCS displacement of Alexa488-PIVKAII (13-27) from mAb 3C10 by PIVKA-II preparations
T2 construct: Residues 13-27 are counted on the Gla domain
Experimental: Various amounts of PIVKAII from different preparations were added to the antigen-antibody complex. After overnight incubation, FCS measurements were performed on each sample.

[4] = target: T1, Alexa-488 labeled PIVKAII Gla domain …; test: fluorescence quenching (FRET) titration in solution, BHQ-labeled mAb, 0.05 nM Alexa488 peptide
Experimental: The binding curve was fit with a simple fitting model.
All binding measurements were performed in 10 mM HEPES buffer, pH 7.4, containing 0.15M NaCl, 3 mM EDTA, and 0.005% surfactant P20.

Binder | binding result [2] | other results
LERECVEETCSYEEA (also called PIVKA-II peptide (13-27)) [PIVKAII (13-27) peptide, unlabeled] | – | binding result [1]: binds
LERECMEETCSYEEA (also called PIVKAII Gla domain (13-27) analog; PIVKAII peptide analog) [Gla domain Factor X peptide (sequence 12)] | no binding | –
LERECIEEICDFEEA (also called PIVKAII Gla domain (13-27) analog; PIVKAII peptide analog) [Gla domain Protein C peptide (sequence 14)] | no binding | –
LERECKEEQCSFEEA (also called PIVKAII Gla domain (13-27) analog; PIVKAII peptide analog) [Gla domain Factor VII peptide (sequence 13)] | no binding | –
LEKECYEEICVYEEA (also called PIVKAII Gla domain (13-27) analog; PIVKAII peptide analog) [Gla domain Protein Z peptide (sequence 16)] | no binding | –
LERECMEEKCSFEEA (also called PIVKAII Gla domain (13-27) analog; PIVKAII peptide analog) [Gla domain Factor IX peptide (sequence 11)] | no binding | –
LERECIEELCNKEEA (also called PIVKAII Gla domain (13-27) analog; PIVKAII peptide analog) [Gla domain Protein S peptide (sequence 15)] | no binding | –
B1 | – | binding result [3]: binds; Kd [4]: 0.15 nM
